These results are taken from patent US20230265516A1 (UNIVERSITY OF ARIZONA ARIZONA BOARD OF REGENTS, published 2023).

The target in the assay is T1, nicotinamide phosphoribosyltransferase (NAMPT), secreted form (Homo sapiens (Human), UniProt P43490 1-491).
T1 construct: also called PBEF; visfatin
The experiment in a line: SPR (format not described).

Usually Kd stands for the constant that tells how readily two partners part at equilibrium. Lower therefore signals tighter binding.

T1 sequence (P43490 whole entry): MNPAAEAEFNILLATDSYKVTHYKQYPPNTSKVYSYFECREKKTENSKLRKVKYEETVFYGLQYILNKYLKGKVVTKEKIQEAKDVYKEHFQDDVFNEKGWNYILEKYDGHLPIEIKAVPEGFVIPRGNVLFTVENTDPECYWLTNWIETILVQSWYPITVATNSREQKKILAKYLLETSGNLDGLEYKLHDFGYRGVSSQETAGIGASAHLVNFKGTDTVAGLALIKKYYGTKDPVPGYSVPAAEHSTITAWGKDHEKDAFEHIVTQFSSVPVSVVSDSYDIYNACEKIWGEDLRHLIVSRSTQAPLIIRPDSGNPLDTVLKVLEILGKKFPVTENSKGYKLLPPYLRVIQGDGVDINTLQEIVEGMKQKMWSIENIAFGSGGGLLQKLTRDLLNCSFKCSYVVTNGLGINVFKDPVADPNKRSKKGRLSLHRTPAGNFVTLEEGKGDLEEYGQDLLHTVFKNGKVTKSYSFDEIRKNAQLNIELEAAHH

B1: humanized anti-NAMPT monoclonal antibody ALT-100 (antibody, V domains shown)
VH: QVQLVQSGAEVTKPGASVKVSCKASGYTFTSYWMQWVRQAPGQGLEWVGEIEPSNSYTNYNQKFRGRVTLTRDTSTTTVYMELSSLRSEDTAVYYCARGGYWGQGTTVTVSS
VL: DIVMTQSPLSLPVTPGEPASISCRSSKSLLHSQGITYLYWYLQKPGQSPQLLIYQLSNRASGVPDRFSGSGSGTDFTLKISRVEAEDVGVYYCVQNLELPYTFGGGTKLEIK
notes: the in vivo control was an IgG1 antibody; also called ALT-100 mAb; Ab3
For B1, binding was put at a Kd of 4.5 nM.
